Results: publication doi:10.1101/2022.06.14.496144, “Crystal structure and functional peculiarities of a primordial Orange Carotenoid Protein (OCPX)” (bioRxiv, 2022)

Molecular target: T1, SynOCP1 lacking the N-terminal extension (ΔNTE-SynOCP1) (Synechocystis sp. PCC 6803, UniProt P74102 13-317)
T1 construct: Orange Carotenoid Protein of Synechocystis sp; PCC 6803 (Uniprot P74102) lacking residues M1-F12 from the N-terminus; also called SynOCP1 ΔNTE mutant; source: E. coli C41(DE3) synthesizing echinenone, purified (subtractive IMAC, SEC)
T1 sequence (looked up): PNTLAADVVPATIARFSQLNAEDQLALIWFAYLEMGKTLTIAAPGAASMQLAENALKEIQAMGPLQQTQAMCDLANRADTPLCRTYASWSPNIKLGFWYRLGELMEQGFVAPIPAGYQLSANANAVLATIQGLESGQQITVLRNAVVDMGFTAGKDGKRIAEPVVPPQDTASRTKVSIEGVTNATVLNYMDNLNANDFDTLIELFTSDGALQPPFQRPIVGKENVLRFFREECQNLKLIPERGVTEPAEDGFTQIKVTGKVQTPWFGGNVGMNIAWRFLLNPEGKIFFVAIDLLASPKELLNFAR
Assay: SEC; spectrochromatography on Superdex 200 Increase 5/150 with diode-array detection; ΔNTE-OCP 20 μM mixed with FRP 40 μM; 20 mM Tris-HCl pH 7.6, 150 mM NaCl; absorbance spectrum ('oranging') read in the same runs
Details: both partners purified

binding result: binds
B1: Fluorescence Recovery Protein from Synechocystis (SynFRP) (natural protein, UniProt P74103 1-109, looked up)
chain: MLQTAEAPWSQAETQSAHALFRKAYQRELDGLLATVQAQASQITQIDDLWKLHDFLSAKRHEIDGKYDDRQSVIIFVFAQLLKEGLVQAEELTFLAADKQSKIKALARL
notes: Fluorescence Recovery Protein of Synechocystis (Uniprot P74103); source: E. coli C41(DE3), purified (subtractive IMAC, SEC)
